Data published in patent US20190225680A1 (NASCIENT, published 2019).

T1: mouse TNC rCd4-His-FBG (rat; mouse, UniProt P05540 207-386)
T1 construct: domain: domains 3 and 4; also called Mu TNC; mouse TNC FBG
T1 sequence: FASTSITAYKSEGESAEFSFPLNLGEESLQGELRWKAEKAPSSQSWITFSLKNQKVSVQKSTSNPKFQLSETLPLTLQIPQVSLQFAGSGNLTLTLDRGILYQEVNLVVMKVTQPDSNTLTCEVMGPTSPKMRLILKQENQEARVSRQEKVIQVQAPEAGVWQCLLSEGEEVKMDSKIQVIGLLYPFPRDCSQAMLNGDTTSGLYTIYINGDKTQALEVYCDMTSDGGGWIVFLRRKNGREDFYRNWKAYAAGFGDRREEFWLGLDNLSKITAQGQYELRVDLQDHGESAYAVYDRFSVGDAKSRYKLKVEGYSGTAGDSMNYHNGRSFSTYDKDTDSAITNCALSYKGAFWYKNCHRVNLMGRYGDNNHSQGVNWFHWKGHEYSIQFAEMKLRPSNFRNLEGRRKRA

T2: human TNR rCd4-His-FBG (rat; human)
T2 sequence: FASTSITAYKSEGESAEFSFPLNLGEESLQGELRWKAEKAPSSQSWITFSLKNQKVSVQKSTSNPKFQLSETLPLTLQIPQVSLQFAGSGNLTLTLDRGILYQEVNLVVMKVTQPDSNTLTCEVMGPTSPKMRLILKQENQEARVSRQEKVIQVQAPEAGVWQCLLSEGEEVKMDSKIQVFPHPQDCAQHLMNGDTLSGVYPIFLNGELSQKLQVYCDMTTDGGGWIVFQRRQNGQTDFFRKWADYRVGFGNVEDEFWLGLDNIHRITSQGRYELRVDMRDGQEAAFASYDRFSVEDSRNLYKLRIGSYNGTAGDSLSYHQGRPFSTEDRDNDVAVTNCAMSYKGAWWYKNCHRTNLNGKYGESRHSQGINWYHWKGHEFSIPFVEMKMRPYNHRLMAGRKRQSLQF

T3: rat TNC rCd4-His-FBG (rat) (UniProt P05540)
T3 sequence: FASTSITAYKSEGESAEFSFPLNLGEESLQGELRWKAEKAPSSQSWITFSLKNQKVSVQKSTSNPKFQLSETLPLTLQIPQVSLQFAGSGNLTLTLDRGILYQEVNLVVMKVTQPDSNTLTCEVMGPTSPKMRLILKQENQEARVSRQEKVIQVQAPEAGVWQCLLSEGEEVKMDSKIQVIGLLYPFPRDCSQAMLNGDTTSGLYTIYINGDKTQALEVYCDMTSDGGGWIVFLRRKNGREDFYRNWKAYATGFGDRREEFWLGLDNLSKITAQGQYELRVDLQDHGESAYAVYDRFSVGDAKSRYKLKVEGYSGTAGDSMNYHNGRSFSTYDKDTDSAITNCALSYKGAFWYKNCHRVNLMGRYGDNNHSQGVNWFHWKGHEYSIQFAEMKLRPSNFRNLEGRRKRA

T4: dog TNC rCD4-His-FBG (rat; dog)
T4 sequence: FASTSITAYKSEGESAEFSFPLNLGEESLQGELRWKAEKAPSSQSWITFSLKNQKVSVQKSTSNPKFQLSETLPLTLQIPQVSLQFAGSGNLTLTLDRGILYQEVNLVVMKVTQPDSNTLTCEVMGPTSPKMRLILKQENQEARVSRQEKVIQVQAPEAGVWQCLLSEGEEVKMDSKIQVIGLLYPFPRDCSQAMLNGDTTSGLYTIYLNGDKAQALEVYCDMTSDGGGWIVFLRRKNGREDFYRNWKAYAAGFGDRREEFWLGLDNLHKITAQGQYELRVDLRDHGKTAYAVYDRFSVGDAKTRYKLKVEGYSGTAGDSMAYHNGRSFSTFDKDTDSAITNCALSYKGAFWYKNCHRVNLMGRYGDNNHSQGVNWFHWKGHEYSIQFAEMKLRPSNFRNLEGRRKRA

T5: human TNC rCd4-His-FBG (rat; human)
T5 sequence: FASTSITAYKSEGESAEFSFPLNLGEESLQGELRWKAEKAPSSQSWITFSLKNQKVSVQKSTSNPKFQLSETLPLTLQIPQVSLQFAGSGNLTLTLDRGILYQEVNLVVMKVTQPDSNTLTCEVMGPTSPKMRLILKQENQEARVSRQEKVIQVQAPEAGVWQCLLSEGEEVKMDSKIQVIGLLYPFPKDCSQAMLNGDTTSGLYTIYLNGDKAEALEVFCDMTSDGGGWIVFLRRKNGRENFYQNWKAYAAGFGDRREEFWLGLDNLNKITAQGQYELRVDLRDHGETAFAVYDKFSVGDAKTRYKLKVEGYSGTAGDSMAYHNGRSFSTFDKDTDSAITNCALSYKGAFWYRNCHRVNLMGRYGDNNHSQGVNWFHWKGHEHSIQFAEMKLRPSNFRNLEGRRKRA

T6: human TNR rCd4-His-FBG (rat; human, UniProt P05540 207-386)
T6 construct: domain: domains 3 and 4; also called Hu TNR; human TNR FBG
T6 sequence: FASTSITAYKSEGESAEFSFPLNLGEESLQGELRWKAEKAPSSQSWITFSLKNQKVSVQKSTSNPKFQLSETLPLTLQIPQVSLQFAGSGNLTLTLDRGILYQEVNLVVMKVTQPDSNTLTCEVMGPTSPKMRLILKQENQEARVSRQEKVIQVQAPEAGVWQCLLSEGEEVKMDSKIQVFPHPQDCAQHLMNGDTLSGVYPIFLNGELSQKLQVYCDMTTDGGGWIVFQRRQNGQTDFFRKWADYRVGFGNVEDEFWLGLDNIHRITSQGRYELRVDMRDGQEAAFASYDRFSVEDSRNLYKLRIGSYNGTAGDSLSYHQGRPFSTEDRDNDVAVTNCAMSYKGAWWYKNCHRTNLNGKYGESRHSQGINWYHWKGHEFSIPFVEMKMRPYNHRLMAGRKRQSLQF


Columns and labels:
mouse TNC rCd4-His-FBG [1] = target: T1, mouse TNC rCd4-His-FBG; test: SPR off-rate screen, 25 C, IgG4 from supernatant captured on anti-human Fc, 15 nM antigen, 1:1 fit
[2] = target: T2, human TNR rCd4-His-FBG (rat; human); test: SPR off-rate screen, 25 C, IgG4 from supernatant captured on anti-human Fc, 100 nM antigen, 1:1 fit
[3] = target: T3, rat TNC rCd4-His-FBG (rat); test: SPR, BIAcore T100, 37 C, IgG4 captured on anti-human Fc, rCD4-His-FBG injected, 1:1 fit
mouse TNC rCd4-His-FBG [4] = target: T1, mouse TNC rCd4-His-FBG; test: as above
[5] = target: T2, human TNR rCd4-His-FBG (rat; human); test: as above
[6] = target: T4, dog TNC rCD4-His-FBG (rat; dog); test: as above
[7] = target: T5, human TNC rCd4-His-FBG (rat; human); test: as above
[8] = target: T2, human TNR rCd4-His-FBG (rat; human); test: SPR, 37 C, purified IgG4 captured on anti-human Fc
human TNR rCd4-His-FBG = target: T6, human TNR rCd4-His-FBG; test: SPR, BIAcore T100, 25 C, Fab captured, rCd4-FBG injected
Protocol: Experiments were performed using a BIAcore T100 instrument with CM5 sensor chip according to the protocol provided with the Human Fab Capture Kit (GE, 28-9583-25). Varying concentrations of rCd4-FBG were injected into a flow-cell with immobilised Fab and a reference flow-cell. After reference signal subtraction, the data was fitted to a global 1:1 fit using theT100 BIAevaluation software.

| koff (mouse TNC rCd4-His-FBG [1]) | koff [2] | Kd [3] | koff [3] | kon [3] | Kd (mouse TNC rCd4-His-FBG [4]) | koff (mouse TNC rCd4-His-FBG [4]) | kon (mouse TNC rCd4-His-FBG [4]) | Kd [5] | koff [5] | kon [5] | Kd [6] | koff [6] | kon [6] | Kd [7] | koff [7] | kon [7] | fold lower affinity for human TNR FBG than for human TNC FBG [8] | fold lower affinity for human TNR FBG than for human TNC FBG (human TNR rCd4-His-FBG) | Binder |
| --- | --- | --- | --- | --- | --- | --- | --- | --- | --- | --- | --- | --- | --- | --- | --- | --- | --- | --- | --- |
| 3.3e-06 s⁻¹ | 0.012 s⁻¹ | 1.22 nM | 0.00473 s⁻¹ | 3.89e+06 M⁻¹ s⁻¹ | 0.46 nM | 0.000445 s⁻¹ | 972000 M⁻¹ s⁻¹ | 35.8 nM | 0.0431 s⁻¹ | 1.2e+06 M⁻¹ s⁻¹ | 1.8 nM | 0.0108 s⁻¹ | 5.97e+06 M⁻¹ s⁻¹ | 0.072 nM | 0.00083 s⁻¹ | 1.16e+07 M⁻¹ s⁻¹ | > 70 fold |  | 165_13_C3 IgG4 (antibody, V domains shown) VH: QVQLVESGGGLVQPGRSLRLSCAASGFTFDDYAMHWVRQAPGKGLEWVSGISGSGGSTYYADSVKGRFTISRDNAKNSLYLQMNSLRAEDTALYYCAKSYQSDEDAFDIWGQGTMVTVSS VL: DIQMTQSPASLPTPVGDRVTITCRASQYIQGFLNWYQQKPGKAPKLLIYDASNLETGVPSRFSGSGSGTDFTLTISSLQPEDFATYYCQQSYSTPQTFGQGTKVDIKR |
|  |  |  |  |  |  |  |  |  |  |  |  |  |  |  |  |  |  | > 60 fold | B12 Fab (Fab, V domains shown, Monomeric Fab from a dual promoter Fab vector; also called B12 parental antibody) VH: QVQLVESGGGLVQPGRSLRLSCAASGFTFDDYAMHWVRQAPGKGLEWVSGISGSGGSTYYADSVKGRFTISRDNAKNSLYLQMNSLRAEDTALYYCAKDISAVPDTFDIWGQGTMVTVSS VL: DIQMTQSPASLPTPVGDRVTITCRASQYIQGFLNWYQQKPGKAPKLLIYDASNLETGVPSRFSGSGSGTDFTLTISSLQPEDFATYYCQQSYSTPQTFGQGTKVDIKR |
